± gives the standard deviation of the averaged measurements.
System: ATP
Assay: switch fluorescence ratio, 500 uM ATP over buffer (Cy3 cluster intensity, sum of 5 cycles each) (fold (ratio)); higher = stronger signal-on switching upon ATP binding; sequences stand for … in TCGTCGGCAGCGTCAGATGTGTATAAGAGACAGTTTTTTTTTTTTTTTTTTTTTTTTT…TC
Conditions: aptamer strand: ATP DNA aptamer (quencher-CACCTGGGGGAGTATTGCGGAGGAAGG + anchor), 100 nM annealed; ATP concentration: 500 uM
Procedure, shortened: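 Clusters with intensities outside 100-1000 RFU were excluded. The remaining Cy3-labelled switching-strand clusters on a modified Illumina MiSeq flow-cell had been annealed to 100 nM quencher-labelled ATP aptamer and imaged in selection buffer, then after 15 min with 500 uM ATP at 22 °C, for five cycles separated by NaOH stripping and re-annealing. The fluorescence ratio, averaged per switch-domain sequence, is each cluster's summed target-cycle Cy3 intensity over its summed buffer-cycle Cy3 intensity.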
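Also: ATP exposure 15 min at 22 °C before imaging.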

Row | Sequence | switch fluorescence ratio
1 | TGATAGCGGA | 1.03 ± 0.035
2 | AATCTGGACG | 1.06 ± 0.048
3 | ATTACGTTTT | 0.989 ± 0.039
4 | TAAGTGTTTT | 0.994 ± 0.023
5 | TTTTAGTCGT | 0.991 ± 0.02
6 | GTTTGAGGGC | 0.985 ± 0.052
7 | TAGGCTGGGG | 0.998 ± 0.023
8 | TACGCGTGGG | 1.004 ± 0.0084
9 | TGCAATTTGT | 1 ± 0.078
10 | TTTGATTTGG | 0.921 ± 0.022
11 | GGAAAATAGT | 1.02 ± 0.047
12 | TGCAGGGATC | 1.03 ± 0.017
13 | CAAAAGGGGA | 0.984 ± 0.04
14 | AATTTCATGT | 1.01 ± 0.012
15 | TATTTGTAAT | 1.03 ± 0.02
16 | TGTGAGGGTT | 0.964 ± 0.012
17 | TAAGGGGGGC | 0.98 ± 0.029
18 | ATTTTGTAAT | 1 ± 0.019
19 | ATTTGGTGTA | 0.968 ± 0.0098
20 | GCGGAAAGGC | 1.01 ± 0.0025
21 | CAACACGGCA | 1.11 ± 0.026
22 | TGTGTCCTAA | 1.03 ± 0.026
23 | GATTTCGATG | 1.01 ± 0.013

Row | Sequence | switch fluorescence ratio
24 | GGGTTCTGTA | 0.985 ± 0.03
25 | GGTTGCAGAG | 1.01 ± 0.024
26 | GGTATGGGGG | 1.02 ± 0.031
27 | ACTGTCATTA | 1.08 ± 0.019
28 | CGTTTTTGGG | 0.985 ± 0.036
29 | GAACTTAAAA | 1.02 ± 0.045
30 | GTTGGGAGGG | 0.985 ± 0.012
31 | ACTAGAACAT | 1.052 ± 0.0042
32 | TATTAGGTCT | 0.991 ± 0.045
33 | TTACCGTGCC | 1.27 ± 0.059
34 | CACTTTTTTA | 0.962 ± 0.039
35 | TGAGGAATGG | 0.9987 ± 0.0036
36 | GTGTCTGAGC | 0.966 ± 0.031
37 | ATTTTTGGTG | 1.06 ± 0.064
38 | GGGGCCGTTA | 1.012 ± 0.0042
39 | ATAAAGTCAC | 1.16 ± 0.18
40 | CCGTGCTCTA | 1.281 ± 0.0015
41 | CCATTGCACG | 1.16 ± 0.12
42 | TTTAGTCGCG | 0.967 ± 0.039
43 | GTGGATGGGG | 1.05 ± 0.13
44 | AAATTGGTTT | 0.995 ± 0.032
45 | CTAGCGGTCG | 0.997 ± 0.0051
46 | AGTCATTATG | 1 ± 0.036

Row | Sequence | switch fluorescence ratio
47 | CAAGGGGCGT | 1.01 ± 0.035
48 | CAAAGGGGGG | 1.13 ± 0.38
49 | TCCGTTTGTT | 0.991 ± 0.04
50 | GTATTATGCG | 1.02 ± 0.028
51 | TCGGGAGCCT | 0.973 ± 0.015
52 | TGGATGGCC | 1.02 ± 0.032
53 | TAGCTGTACA | 1.01 ± 0.015
54 | AGCTGATTTT | 0.982 ± 0.033
55 | ATGGTTGGTA | 0.995 ± 0.038
56 | GGTTCTAAGA | 0.98129 ± 0.00096
57 | TTTAGAGTGT | 1.044 ± 0.0087
58 | TTCTGGATCT | 0.996 ± 0.044
59 | AAAGCTCGTA | 1.06 ± 0.054
60 | ACGTCAAGGG | 1.1 ± 0.067
61 | AAAAGTCTGA | 1.01 ± 0.041
62 | TCTCCAGATA | 1.12 ± 0.034
63 | AGGCTACCGT | 1.0254 ± 0.001
64 | CAGTGGTCGT | 0.999 ± 0.011
65 | GTAGCGGGAG | 1.057 ± 0.0053
66 | TTTGTTGGTG | 1 ± 0.029
67 | CAGGGGATTA | 1 ± 0.045
68 | GCGTGCATCC | 1.03 ± 0.053
69 | GTGGGGATTC | 0.971 ± 0.037

Row | Sequence | switch fluorescence ratio
70 | CTGGGCCGTC | 1.01 ± 0.021
71 | GCTGCTGGGT | 1.01 ± 0.032
72 | CCAAGGGGTT | 1.01 ± 0.03
73 | AGTTTTGGGC | 0.976 ± 0.016
74 | GGGGTACGCT | 0.99523 ± 0.00067
75 | TCTGAGAGGA | 0.972 ± 0.032
76 | AAGCAGGTGG | 1.052 ± 0.0096
77 | TTGAGCTGTT | 0.981 ± 0.033
78 | TTGCTAATCA | 1 ± 0.04
79 | AGTGAGTCGT | 0.961 ± 0.035
80 | TCTAGAGCGG | 1.02 ± 0.029
81 | TGAGAGGAGG | 1 ± 0.028
82 | ATCTGTACGA | 1.02 ± 0.027
83 | TTGGGCCCGT | 1.02 ± 0.075
84 | TAATTTGTTT | 1.03 ± 0.025
85 | AGGTTCACTT | 0.998 ± 0.025
86 | AATGGGGTGT | 0.987 ± 0.021
87 | ACAGCTTTTT | 1.01 ± 0.013
88 | AAGGGCGAGC | 0.985 ± 0.1
89 | GGTTTTATTG | 0.987 ± 0.044
90 | GCTCAATTGA | 1.004 ± 0.01
91 | TTAAAAATAG | 0.976 ± 0.027
92 | TGTGGGAGCG | 0.9542 ± 0.0021

Row | Sequence | switch fluorescence ratio
93 | GGGGGAGGT | 0.986 ± 0.038
94 | GTGGCGAAGG | 0.993 ± 0.014
95 | ATGTAAGGCG | 1.014 ± 0.0076
96 | AGTAGTCGTC | 0.99 ± 0.058
97 | AAATCTCGT | 0.995 ± 0.058
98 | GGAGGACTTT | 0.9826 ± 0.0028
99 | AATCCGACGA | 1.66 ± 0.17
100 | ATAATTTATT | 0.996 ± 0.012
101 | ATCGACGTTT | 1.03 ± 0.055
102 | GGCAAAGGGT | 1.06 ± 0.056
103 | ATATGAAAGT | 0.977 ± 0.024
104 | TTCTGGGGTG | 1.46 ± 0.67
105 | CGGGATATAA | 0.989 ± 0.022
106 | AGGTGAGGTA | 1 ± 0.019
107 | GAAGCAAAGG | 2.04 ± 0.074
108 | CCAACGGTCT | 1.04 ± 0.0012
109 | ATTTTACACC | 1.07 ± 0.013
110 | TTGTGTGTAA | 0.995 ± 0.014
111 | CGGAGGGTGT | 0.997 ± 0.033
112 | TTTGGAGATA | 1.03 ± 0.032
113 | AGGGCTATTT | 0.973 ± 0.01
114 | GGTTCAGGTA | 0.9876 ± 0.0062
115 | ACTGTTAGCA | 1.061 ± 0.0046

Row | Sequence | switch fluorescence ratio
116 | TGCTCGGGAC | 1.09 ± 0.047
117 | GGCGGTATGT | 0.975 ± 0.028
118 | TGGCAATTAG | 1.1 ± 0.074
119 | TTGTTTGGCC | 1.05 ± 0.079
120 | TTACATTTTG | 1.01 ± 0.026
121 | CGTTGGGTTG | 0.987 ± 0.024
122 | TTTAGGTAT | 1 ± 0.023
123 | GGAAACTCTC | 1 ± 0.015
124 | AGGAGATGTA | 1.029 ± 0.0061
125 | AAGCTACTGG | 1.0513 ± 0.00024
126 | GGTGGGATGC | 1.02 ± 0.076
127 | TTTGAGTATA | 0.992 ± 0.031
128 | CCGTTCCCGT | 1.13 ± 0.028
129 | TGACTTAGTT | 0.999 ± 0.051
130 | ATGTACGAAT | 1.004 ± 0.0025
131 | CCTGGGGGGC | 1.09 ± 0.18
132 | GGGCAATTGA | 1 ± 0.051
133 | CGCCTAAGGG | 0.993 ± 0.037
134 | TTGTTAGGCC | 0.995 ± 0.021
135 | ATGTTTGGTA | 1.003 ± 0.0015
136 | TAGGGGGCTA | 0.995 ± 0.027
137 | TGAACCTTCA | 2.71 ± 0.14
138 | CGGGGTGAAT | 1.022 ± 0.0052

Row | Sequence | switch fluorescence ratio
139 | CCACGCCCGG | 1.15 ± 0.099
140 | GAGCAACTGA | 1.022 ± 0.0018
141 | TGCAATTGGG | 1.08 ± 0.022
142 | TTGTTGAAGG | 0.998 ± 0.038
143 | ATACCTCTTG | 0.992 ± 0.022
144 | CTGGCTACTA | 1.03 ± 0.031
145 | GAGGGGCCGG | 0.972 ± 0.057
146 | TTCACTGGGC | 1.01 ± 0.0013
147 | TTCCGGTCTT | 1.03 ± 0.066
148 | AAAATCGCGG | 0.9844 ± 0.0018
149 | TAAGGGGTGG | 0.969 ± 0.028
150 | GGTTTAGAGC | 1.01 ± 0.02
151 | CTAGCTTAGC | 0.9902 ± 0.0056
152 | GTTAGGCCCT | 1 ± 0.014
153 | AGGATCATGG | 1.01 ± 0.021
154 | GGAGATTGCA | 1.058 ± 0.0089
155 | TTGGTACGGC | 0.99 ± 0.037
156 | CTGTGGGGAT | 0.961 ± 0.014
157 | TTTTTAAGCG | 1 ± 0.023

Source: the supplement of paper PMC10126150
